Assays:
Experiment in all cases: BLI (SUMO-peptide on tip, monomeric EVH1)
PRRC2B = target: T1, PRRC2B (Homo sapiens (Human), UniProt Q5JSZ5)
T1 chain: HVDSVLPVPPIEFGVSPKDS

APBB1IP_1 = target: T2, APBB1IP_1 (Homo sapiens (Human), UniProt Q7Z5R6)
T2 chain: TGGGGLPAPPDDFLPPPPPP

FAT1 = target: T3, FAT1 (Homo sapiens (Human), UniProt Q14517)
T3 chain: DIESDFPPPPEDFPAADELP

RARA = target: T4, RARA (Homo sapiens (Human), UniProt P10276)
T4 chain: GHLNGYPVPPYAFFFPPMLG

PCDH15 = target: T5, PCDH15 (Homo sapiens (Human), UniProt Q96QU1)
T5 chain: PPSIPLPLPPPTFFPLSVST

DSCAM = target: T6, DSCAM (Homo sapiens (Human), UniProt O60469)
T6 chain: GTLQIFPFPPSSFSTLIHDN

B1: HOMER1 (protein)
chain: MGEQPIFSTRAHVFQIDPNTKKNWVPTSKHAVTVSYFYDSTRNVYRIISLDGSKAIINSTITPNMTFTKTSQKFGQWADSRANTVYGLGFSSEHHLSKFAEKFQEFKEAARLA
**Q.** Which results are given for B1?
**A.** Kd (PRRC2B): 100 µM; Kd (APBB1IP_1): > 150 µM; Kd (FAT1): 98 µM; Kd (RARA): 100 µM; Kd (PCDH15): > 150 µM

B2: ENAH (protein)
chain: MSEQSICQARAAVMVYDDANKKWVPAGGSTGFSRVHIYHHTGNNTFRVVGRKIQDHQVVINCAIPKGLKYNQATQTFHQWRDARQVYGLNFGSKEDANVFASAMMHALEVLNS
**Q.** With B2 as the binder, how does the Kd (PRRC2B) read?
**A.** > 150 µM

**Q.** What about the Kd (DSCAM) of the same binder?
**A.** > 150 µM

**Q.** What about the Kd (RARA) of the same binder?
**A.** > 150 µM
